The values below come from US20150010589A1.

Assay [1] concerns the target soluble collagen type III (pepsin-digested, non-fibrillar; BD Biosciences) (human) (UniProt P02461). The assay is described as follows: SPR, saliva injected over immobilized collagen type III, 120 sec at 20 µl/min. (In general: In SPR one partner is held on a chip, and binding of the other changes the refractive index at the surface.)
The target of assay [2] is soluble collagen type I (pepsin-digested, non-fibrillar, triple helical; BD Biosciences) (human) (UniProt P02452). The assay is described as follows: SPR, saliva injected over immobilized collagen type I, 120 sec at 20 µl/min.
Assay [3] deals with horse tendon insoluble fibrillar Horm collagen (Chrono-Log), collagen I (95%) and III (5%) (horse). The assay can be described thus: cell-based or functional assay.
Assay [4] addresses collagen-related peptide (CRP) GCO-(GPO)10-GCOG-NH2, cross-linked. The assay is described as follows: SPR, Aegyptin over immobilized cross-linked (GPO)10 peptide, two-state model; Kd1.
For assay [5] the target is unchanged. The assay can be described thus: SPR, Aegyptin over immobilized cross-linked (GPO)10 peptide, two-state model; Ka1.
For assay [6] the target is unchanged. The assay is described as follows: SPR, Aegyptin over immobilized cross-linked (GPO)10, two-state binding model (the table prints 5.101 µM).
The target is the same in assay [7]. The assay can be described thus: SPR, Aegyptin over immobilized cross-linked (GPO)10 peptide, two-state model.

Sequence of soluble collagen type III (pepsin-digested, non-fibrillar; BD Biosciences) (human) (P02461 168-1196 limits assumed): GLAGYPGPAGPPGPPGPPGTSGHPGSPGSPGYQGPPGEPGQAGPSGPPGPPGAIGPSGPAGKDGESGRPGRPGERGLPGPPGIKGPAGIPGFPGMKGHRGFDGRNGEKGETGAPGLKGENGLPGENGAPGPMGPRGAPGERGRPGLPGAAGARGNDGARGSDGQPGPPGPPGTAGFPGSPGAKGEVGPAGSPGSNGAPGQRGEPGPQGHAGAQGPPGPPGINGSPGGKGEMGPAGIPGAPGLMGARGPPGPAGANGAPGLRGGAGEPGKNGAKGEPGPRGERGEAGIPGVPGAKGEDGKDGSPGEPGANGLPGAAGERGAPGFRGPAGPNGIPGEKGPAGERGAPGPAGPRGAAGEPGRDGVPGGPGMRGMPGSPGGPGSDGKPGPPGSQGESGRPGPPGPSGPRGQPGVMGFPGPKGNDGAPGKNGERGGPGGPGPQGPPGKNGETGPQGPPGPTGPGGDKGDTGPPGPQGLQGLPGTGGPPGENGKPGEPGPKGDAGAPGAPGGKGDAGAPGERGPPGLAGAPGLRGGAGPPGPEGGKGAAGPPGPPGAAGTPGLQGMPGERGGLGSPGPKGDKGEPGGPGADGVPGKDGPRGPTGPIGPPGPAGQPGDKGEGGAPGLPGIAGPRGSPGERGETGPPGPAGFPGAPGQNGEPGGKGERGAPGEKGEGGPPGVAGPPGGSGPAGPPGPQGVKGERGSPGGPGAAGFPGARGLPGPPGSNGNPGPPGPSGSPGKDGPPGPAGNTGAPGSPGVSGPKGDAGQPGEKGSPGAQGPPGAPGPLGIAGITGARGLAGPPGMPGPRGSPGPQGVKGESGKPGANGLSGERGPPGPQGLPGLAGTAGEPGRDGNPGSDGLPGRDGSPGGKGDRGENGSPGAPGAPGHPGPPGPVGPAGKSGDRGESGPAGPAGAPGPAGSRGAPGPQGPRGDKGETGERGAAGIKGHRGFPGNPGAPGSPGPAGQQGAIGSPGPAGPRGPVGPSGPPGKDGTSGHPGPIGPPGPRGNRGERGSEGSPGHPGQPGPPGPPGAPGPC
Sequence of soluble collagen type I (pepsin-digested, non-fibrillar, triple helical; BD Biosciences) (human) (P02452 179-1192 limits assumed, chain 1 of 2): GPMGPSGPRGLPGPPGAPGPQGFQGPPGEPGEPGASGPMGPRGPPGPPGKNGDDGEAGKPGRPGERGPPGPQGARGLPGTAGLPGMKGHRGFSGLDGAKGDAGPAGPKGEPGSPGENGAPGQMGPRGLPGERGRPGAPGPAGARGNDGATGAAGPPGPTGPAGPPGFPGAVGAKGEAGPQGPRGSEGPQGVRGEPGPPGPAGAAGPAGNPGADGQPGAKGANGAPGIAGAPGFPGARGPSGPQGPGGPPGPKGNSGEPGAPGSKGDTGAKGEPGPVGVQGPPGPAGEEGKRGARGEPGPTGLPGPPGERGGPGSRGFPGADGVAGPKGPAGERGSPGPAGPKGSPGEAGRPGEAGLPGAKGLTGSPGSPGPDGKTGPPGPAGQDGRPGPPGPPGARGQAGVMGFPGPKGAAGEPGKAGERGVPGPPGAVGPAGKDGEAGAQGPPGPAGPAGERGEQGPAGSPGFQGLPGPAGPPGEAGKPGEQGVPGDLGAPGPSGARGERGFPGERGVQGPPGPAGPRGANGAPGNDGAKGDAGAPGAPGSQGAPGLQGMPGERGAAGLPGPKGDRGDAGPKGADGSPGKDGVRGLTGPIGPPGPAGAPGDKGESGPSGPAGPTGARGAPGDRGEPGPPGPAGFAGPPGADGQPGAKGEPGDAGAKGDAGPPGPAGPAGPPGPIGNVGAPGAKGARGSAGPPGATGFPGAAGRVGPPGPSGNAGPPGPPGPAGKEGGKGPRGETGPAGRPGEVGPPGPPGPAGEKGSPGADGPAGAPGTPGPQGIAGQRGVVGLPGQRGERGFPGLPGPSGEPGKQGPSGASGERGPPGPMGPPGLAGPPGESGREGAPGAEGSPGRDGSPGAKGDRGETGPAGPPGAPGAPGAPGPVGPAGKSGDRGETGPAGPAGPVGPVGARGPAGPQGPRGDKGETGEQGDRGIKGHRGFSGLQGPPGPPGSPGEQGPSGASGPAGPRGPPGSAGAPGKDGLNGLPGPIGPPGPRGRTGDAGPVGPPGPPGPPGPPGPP
Sequence of soluble collagen type I (pepsin-digested, non-fibrillar, triple helical; BD Biosciences) (human) (P08123 91-1104 limits assumed, chain 2 of 2, further chain): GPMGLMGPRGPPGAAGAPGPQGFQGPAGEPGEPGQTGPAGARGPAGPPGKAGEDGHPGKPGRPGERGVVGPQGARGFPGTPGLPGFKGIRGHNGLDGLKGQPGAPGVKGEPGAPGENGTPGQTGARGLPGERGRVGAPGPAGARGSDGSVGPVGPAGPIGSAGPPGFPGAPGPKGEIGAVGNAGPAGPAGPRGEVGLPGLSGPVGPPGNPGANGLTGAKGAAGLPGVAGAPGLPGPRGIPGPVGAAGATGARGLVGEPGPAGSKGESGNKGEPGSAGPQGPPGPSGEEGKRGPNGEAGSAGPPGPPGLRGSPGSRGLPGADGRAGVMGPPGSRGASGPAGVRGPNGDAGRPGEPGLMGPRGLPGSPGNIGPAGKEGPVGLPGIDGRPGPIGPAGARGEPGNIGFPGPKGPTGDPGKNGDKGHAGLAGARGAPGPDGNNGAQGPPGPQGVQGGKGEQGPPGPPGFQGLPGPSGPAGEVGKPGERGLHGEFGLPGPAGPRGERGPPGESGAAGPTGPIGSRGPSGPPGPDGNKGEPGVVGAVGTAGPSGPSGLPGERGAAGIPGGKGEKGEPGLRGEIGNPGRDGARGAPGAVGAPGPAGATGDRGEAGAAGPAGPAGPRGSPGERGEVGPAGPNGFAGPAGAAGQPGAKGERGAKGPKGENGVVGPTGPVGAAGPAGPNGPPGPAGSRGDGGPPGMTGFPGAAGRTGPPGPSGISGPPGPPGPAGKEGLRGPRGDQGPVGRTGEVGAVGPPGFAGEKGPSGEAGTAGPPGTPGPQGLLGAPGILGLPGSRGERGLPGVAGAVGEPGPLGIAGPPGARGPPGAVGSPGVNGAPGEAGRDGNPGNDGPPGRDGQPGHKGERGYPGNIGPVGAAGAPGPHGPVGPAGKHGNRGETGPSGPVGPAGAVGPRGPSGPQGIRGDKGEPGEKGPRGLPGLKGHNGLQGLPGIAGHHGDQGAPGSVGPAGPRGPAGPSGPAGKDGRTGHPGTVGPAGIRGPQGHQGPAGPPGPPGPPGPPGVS

Consider “Ae. aegypti saliva (collected by oil-induced salivation)”, for which the Response (RU) in assay [1] was found to be 348 RU; in assay [2] it was 556 RU.
Turning to “Aegyptin C-terminus-2 (137 aa), truncated form without GEEDA repeats (from UniProt O01949 137-273)”, the collagen-induced platelet aggregation in assay [3] turned out to be 3 µM.
One may read the koff as a measure of how fast the partners let go of each other. Low readings indicate a long-lived complex, high ones a short-lived complex. By kon is commonly meant a measure of how fast the partners come together. Read a low kon as slow association. The Kd is the constant that tells how readily two partners part at equilibrium. The substance “recombinant Aegyptin (mature protein with C-terminal 6xHis tag, expressed in 293-F cells) (from UniProt O01949 20-273)” yielded a koff in assay [4] of 1.19 s⁻¹. The substance further returned a kon in assay [5] of 206000 M⁻¹ s⁻¹. Also, the Kd in assay [6] is 5.01 µM; in assay [7] it was 5.1 µM. The Kd2 in assay [7] was 0.0289 s⁻¹.
